Measured values taken from the supplement of paper PMC7877785.
± gives the uncertainty stated by the source.

Test: self-splicing fitness, log relative to wild type (ln ratio); higher = more splicing; Tetrahymena group I intron in knt gene, E. coli kanamycin selection, DiMSum; sequences stand for … in CUCUCU…GGAGGGAAAAGUUAUCAGGCAUGCACCUGGUAGCUAGUCUUUAAACCAAUAGAUUGCAUCGGUUUAAAAGGCAAGACCGUCAAAUUGCGGGAAAGGGGUCAACAGCCGUUCAGUACCAAGUCUCAGGGGAAACUUUGAGAUGGCCUUGCAAAGGGUAUGGUAAUAAGCUGACGGACAUGGUCCUAACCACGCAGCCAAGUCCUAAGUCAACAGAUCUUCUGUUGAUAUGGAUGCAGUUCACAGACUAAAUGUCGGUCGGGGAAGAUGUAUUCUUCUCAUAAGAUAUAGUCGGACCUCUCCUUAAUGGGAGCUAGCGGAUGAAGUGAUGCAACACUGGAGCCGCUGGGAACUAAUUUGUAUGCGAAAGUAUAUUGAUUAGUUUUGGAGUACUCGUGGUCG
Summary of the method: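 Library with all eight P1ex-region intron nucleotides randomised, intron inside the knt kanamycin-resistance gene on pET-22b(+), in E. coli BL21(DE3). Cells grew overnight at 37°C or 30°C on LB agar with or without 25 μg/mL kanamycin (plus 100 μg/mL carbenicillin, 50 μM IPTG, 0.2% rhamnose), in six replicate transformations. Pooled colonies were amplicon-sequenced on Illumina HiSeq 2500. DiMSum fitness is the error-weighted combination of wild-type-normalised replicate fold changes, kanamycin versus none.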

Sequence | self-splicing fitness (ln) (30 °C) | self-splicing fitness (ln) (37 °C)
AAUGAGCAAUAUUACGAAGG | -2.56 ± 0.43 | -3.54 ± 0.43
CAAAAGCAAUAUUACGCUAU | -2.78 ± 0.16 | -2.09 ± 0.19
GCGGAGCAAUAUUACGGAUG | -3.28 ± 0.17 | -1.67 ± 0.22
UUUAAGCAAUAUUACGCUUG | -3.29 ± 0.23 | -1.4 ± 0.26
AAGGAGCAAUAUUACGGAGG | -2.97 ± 0.22 | -1.59 ± 0.23
GAGAAGCAAUAUUACGCGGC | -3.03 ± 0.23 | -0.0876 ± 0.18
UUGCAGCAAUAUUACGUUGA | -1.61 ± 0.12 | -1.24 ± 0.12
CAUUAGCAAUAUUACGUUGG | -2.05 ± 0.085 | -1.03 ± 0.1
UGGGAGCAAUAUUACGCCAU | -3.45 ± 0.33 | -0.288 ± 0.26
UAUUAGCAAUAUUACGGACC | -1.51 ± 0.43 | –
CGCUAGCAAUAUUACGUUCC | -2.83 ± 0.15 | -2.81 ± 0.31
CGUGAGCAAUAUUACGGAUC | -4.24 ± 0.33 | -1.88 ± 0.25
AGCUAGCAAUAUUACGUUGU | -2.56 ± 0.17 | -2.32 ± 0.22
UAACAGCAAUAUUACGCUCA | -0.26 ± 0.091 | 0.174 ± 0.13
GUCUAGCAAUAUUACGGUUG | -2.54 ± 0.092 | -1.53 ± 0.1
AAUAAGCAAUAUUACGCGUG | -0.604 ± 0.071 | -0.455 ± 0.089
UGCUAGCAAUAUUACGAAAA | -2.16 ± 0.15 | -1.72 ± 0.15
CACAAGCAAUAUUACGCGUA | -1.64 ± 0.072 | -0.625 ± 0.067
ACAUAGCAAUAUUACGUUGG | -3.23 ± 0.2 | -2.29 ± 0.14
CUGGAGCAAUAUUACGAUGA | -3.18 ± 0.4 | -1.87 ± 0.24
UAUGAGCAAUAUUACGUGGG | -3.55 ± 0.25 | -3.94 ± 0.39

Sequence | self-splicing fitness (ln) (30 °C) | self-splicing fitness (ln) (37 °C)
CCUGAGCAAUAUUACGUAAC | – | -2.3 ± 0.35
GAGAAGCAAUAUUACGUACG | -1.42 ± 0.1 | -0.572 ± 0.12
UAGUAGCAAUAUUACGUGGC | – | -2.59 ± 0.44
UAACAGCAAUAUUACGAAAA | -3.2 ± 0.21 | -1.18 ± 0.15
UAAAAGCAAUAUUACGUGGC | -3.46 ± 0.2 | -2.74 ± 0.2
AAUGAGCAAUAUUACGCUAG | – | -1.93 ± 0.36
AUAGAGCAAUAUUACGUUUC | -3.32 ± 0.22 | -1.46 ± 0.24
GUCGAGCAAUAUUACGAUGC | -1.17 ± 0.18 | -1.09 ± 0.18
AUUAAGCAAUAUUACGGAGG | -2.32 ± 0.16 | -1.42 ± 0.27
AUGCAGCAAUAUUACGUUUC | -3.96 ± 0.18 | -3.31 ± 0.32
AUCCAGCAAUAUUACGACGA | -0.497 ± 0.14 | 0.0611 ± 0.12
GCUGAGCAAUAUUACGUUUU | -4.08 ± 0.26 | -3.21 ± 0.22
CGGUAGCAAUAUUACGCUAA | -2.88 ± 0.28 | -1.85 ± 0.18
ACAAAGCAAUAUUACGUGCC | -1.14 ± 0.077 | -1.16 ± 0.097
CUGUAGCAAUAUUACGCAAG | -2.47 ± 0.12 | -1.56 ± 0.11
CUUGAGCAAUAUUACGCCGU | -3.24 ± 0.29 | –
CCAAAGCAAUAUUACGUCUA | -3.06 ± 0.23 | -2.06 ± 0.21
UACCAGCAAUAUUACGCCCU | -0.895 ± 0.12 | 0.138 ± 0.13
GCUCAGCAAUAUUACGUCUA | -0.844 ± 0.1 | -0.494 ± 0.097
CUCCAGCAAUAUUACGACUC | -3.66 ± 0.24 | -2.24 ± 0.38
CAACAGCAAUAUUACGCCGG | -0.647 ± 0.062 | 0.147 ± 0.087

Sequence | self-splicing fitness (ln) (30 °C) | self-splicing fitness (ln) (37 °C)
UGAAAGCAAUAUUACGCCUU | -0.914 ± 0.2 | -2.01 ± 0.34
AGAUAGCAAUAUUACGACUU | -0.125 ± 0.065 | -0.304 ± 0.086
AAUAAGCAAUAUUACGGACC | -1.54 ± 0.12 | -0.72 ± 0.15
GGGAAGCAAUAUUACGAUCG | 0.00926 ± 0.13 | -0.00218 ± 0.13
UUUAAGCAAUAUUACGAACA | -0.6 ± 0.17 | -0.353 ± 0.19
UGCCAGCAAUAUUACGACGC | -3.03 ± 0.22 | -1.68 ± 0.25
AAGCAGCAAUAUUACGCCUG | -2.41 ± 0.13 | -1.58 ± 0.14
AGCGAGCAAUAUUACGAUCG | -1.79 ± 0.25 | -1.63 ± 0.3
GCCCAGCAAUAUUACGAACA | -1.58 ± 0.12 | -1.46 ± 0.11
CCCUAGCAAUAUUACGCUCC | – | -2.13 ± 0.4
GCCAAGCAAUAUUACGGGAA | -0.356 ± 0.064 | -0.585 ± 0.079
AGGAAGCAAUAUUACGAUCA | -0.344 ± 0.091 | -0.31 ± 0.09
CACCAGCAAUAUUACGUCCU | -3.31 ± 0.13 | -1.87 ± 0.14
AACAAGCAAUAUUACGGAAC | -3.32 ± 0.16 | -1.73 ± 0.15
UACUAGCAAUAUUACGCAUC | -2.36 ± 0.14 | -1.53 ± 0.18
CGGAAGCAAUAUUACGAGCA | -2.83 ± 0.24 | -1.82 ± 0.18
UUCCAGCAAUAUUACGGGAA | -2.87 ± 0.35 | -2.84 ± 0.34
AAUUAGCAAUAUUACGCCCU | 0.0273 ± 0.1 | -0.313 ± 0.13
UCAGAGCAAUAUUACGGCUG | -2.49 ± 0.19 | -0.448 ± 0.2
AACUAGCAAUAUUACGCGGU | -4.59 ± 0.29 | -0.982 ± 0.17
